{
  "source": "paper PMC3110666",
  "about": "(Nature cell biology, 2011)",
  "proteins": {"B1": {"name": "G6PD of MEF cells (enzyme, mouse (endogenous in MEF), UniProt Q00612 1-515, looked up)", "chain": "MAEQVALSRTQVCGILREELYQGDAFHQADTHIFIIMGASGDLAKKKIYPTIWWLFRDGLLPEDTFIVGYARSRLTVDDIRKQSEPFFKATPEERPKLEEFFARNSYVAGQYDDAASYKHLNSHMNALHQGMQANRLFYLALPPTVYEAVTKNIQETCMSQTGWNRIIVEKPFGRDLQSSNQLSNHISSLFREDQIYRIDHYLGKEMVQNLMVLRFANRIFGPIWNRDNIACVILTFKEPFGTEGRGGYFDEFGIIRDVMQNHLLQMLCLVAMEKPATTGSDDVRDEKVKVLKCISEVETDNVVLGQYVGNPNGEGEAANGYLDDPTVPHGSTTATFAAAVLYVENERWDGVPFILRCGKALNERKAEVRLQFRDVAGDIFHQQCKRNELVIRVQPNEAVYTKMMTKKPGMFFNPEESELDLTYGNRYKNVKLPDAYERLILDVFCGSQMHFVRSDELREAWRIFTPLLHKIDREKPQPIPYVYGSRGPTEADELMKRVGFQYEGTYKWVNPHKL"}},
  "molecular_target": "the molecule itself",
  "assay": "cross-linking",
  "data": [
    {"protein": "B1", "values": [
      {"measurement": "stoichiometry N", "result": 2}
    ]}
  ]
}
